Measurements reported in patent US20240108693A1, “METHOD OF TREATING LOWER URINARY TRACT SYMPTOMS” (Versameb AG, priority 2021, published 2024).
“Also recorded” adds a separate entry of the source.

B1: Cpd.1A: mRNA encoding human BDNF signal peptide, IGF1 pro-domain and mature human IGF1 (SEQ ID NO: 8), from pMA-T vector, N1-methylpseudouridine modified (nucleic acid)
DNA: AUGACCAUCCUGUUUCUGACAAUGGUCAUCAGCUACUUCGGCUGCAUGAAGGCCGUGAAGAUGCACACCAUGAGCAGCAGCCACCUGUUCUAUCUGGCCCUGUGCCUGCUGACCUUUACCAGCUCUGCUACCGCCGGACCUGAGACACUUUGUGGCGCUGAACUGGUGGACGCCCUGCAGUUUGUGUGUGGCGACAGAGGCUUCUACUUCAACAAGCCCACAGGCUACGGCAGCAGCUCUAGAAGGGCUCCUCAGACCGGAAUCGUGGACGAGUGCUGCUUCAGAAGCUGCGACCUGCGGCGGCUGGAAAUGUAUUGUGCCCCUCUGAAGCCUGCCAAGAGCGCCUAA
modifications: mRNA, N1-methylpseudouridine modified; misc_feature 1..348 RNA sequence of Cpd.1A and Cpd.1B; misc_feature 1..348 m1f (uridine is 1-methylpseudouridine)
B2: Cpd.1B: mRNA encoding human BDNF signal peptide, pro-IGF1 and mature IGF1 without E-peptide, 120 bp poly-A tail, from pMK vector (nucleic acid)
chain: B1 DNA
modifications: 1-methylpseudouridine; poly-A tail; misc_feature 1..348 RNA sequence of Cpd.1A and Cpd.1B; misc_feature 1..348 m1f (uridine is 1-methylpseudouridine)
notes: mRNA encoding human BDNF signal peptide, pro-IGF1 and mature IGF1 without E-peptide, 120 bp poly-A tail, from pMK vector

Key:
[1] = tested on: vaginal distension (VD) animal model of stress urinary incontinence (SUI); assay: Leak point pressure (LPP) in rat vaginal distension model for stress urinary incontinence; format: in vivo; settings: for area under curve (AUC) of urinary bladder leak point pressure: Day 0-14 after VD; for time course of leak point pressure (LPP): Day 4, 9 and 14 after VD; for leak point pressure (LPP) of urinary bladder: Cpd.1B single urethral injection Day 0, Duloxetine 20 mg/kg oral daily
Description: The urethra is a conduit for elimination of urine from the bladder. It is composed of an epithelium lining the lumen, lamina propria with a prominent vascular plexus, smooth muscle and an outer layer of striated muscle (called external urethral sphincter). The urethra functions in coordination with the bladder: it remains closed during bladder filling to maintain continence and it relaxes during voiding to allow flow of urine. These processes are controlled by parasympathetic, sympathetic and somatic innervation. Parasympathetic nerves release nitric oxide to relax the urethra during bladder voiding, while sympathetic nerves release noradrenaline to contract the urethra during bladder filling. The striated muscle receives somatic innervation that contracts the muscle ensuring continence during bladder filling. Using the model of stress urinary incontinence (SUI) in female rats the hypothesis was tested if Cpd.1B can be effective against SUI in the vaginal distension (VD) model by facilitating muscle growth and regeneration. […] Vaginal Distension (VD) was applied for 4 hours to female Sprague-Dawley Female rats under isoflurane anesthesia. 1 hour after the end of VD, the abdomen was surgically opened to access the urethra and rats received two injections of vehicle or Cpd.1B (10 μg each) through a Hamilton syringe at approximately 5 and 7 o'clock positions. Sham treated animals (catheter without inflation) were treated with vehicle as controls. […] Rats were then put in a supine position on a heated pad at 37° C. The bladder was emptied manually and filled with room temperature saline through the bladder catheter at 3.0 ml/h. After bladder filling with 0.4-0.5 ml, the abdomen was slowly depressed manually to increase abdominal pressure until fluid leakage was observed from the urethral orifice.

[2] = tested on: vaginal distension (VD) animal model of stress urinary incontinence (SUI); assay: Histological assessment of urethral integrity after vaginal distension (Masson trichrome scores); format: in vivo, rat; settings: mid-urethra cross-sections, Day 9 and 14 after VD
Procedure: Vaginal Distension (VD) was applied for 4 hours to female Sprague-Dawley Female rats under isoflurane anesthesia. 1 hour after the end of VD, the abdomen was surgically opened to access the urethra and rats received two injections of vehicle or Cpd.1B (10 μg each) through a Hamilton syringe at approximately 5 and 7 o'clock positions. Sham treated animals (catheter without inflation) were treated with vehicle as controls. […] From 2 animals of each group, the urethra-vaginal tissues were harvested (cross-section of the mid-urethra and anterior vagina) on Day 9 and 14, and the tissues immersed in neutral buffered formalin containing 4% formaldehyde for a period of 4 h, then embedded in paraffin. Sections of 5 μm were stained with the standard procedures of Hemalun-Eosin (HE), Masson Trichrome (MT) and Picrosirius red. Based on morphology and tissue integrity, histology scores were allocated to the outer circular muscle layer (OCML), the inner longitudinal muscle layer (ILML) and the endomysial tissue of mid-urethral sections, and Day 9 and 14 sampled. The following histological scores were applied to the different layers and averaged per group: • Outer Circular Muscle Layer (OCML, skeletal muscle): • 0=circumferential regular • 1=circumferential focally thinned • 2=discontinued • 3=mostly absent • Inner Longitudinal Muscle Layer (ILML, smooth muscle): • 0=mid-sized to large fascicles • 1=small fascicles) • Endomysial tissue: • 0=thin, dense • 1=thickening by loose connective tissue • 2=focal replacement of muscles by connective tissue • 3=replacement of muscles by connective tissue

[3] = rat, in vivo
Procedure: (§1) For assessment of Cpd.1A exposure in rat tibialis anterior (TA) muscle, two injections of each 15 μl Cpd.1A at different doses (1, 3 or 10 μg per injection) into TA muscles of male or female rats were performed in adult rats. After 6, 24, 48 and 72 hours, TA muscles were harvested, divided into two parts to analyse RNA and protein content, and Cpd.1A RNA content was analysed by qPCR and IGF1 protein levels by human-specific IGF1 ELISA (Cat. #E20, Mediagnost, Reutlingen, Germany). Total RNA was extracted from flash frozen TA muscle tissues (ca. 10 mg) using Norgen's Animal Tissue RNA Purification Kit (Cat. #25700). A TaqMan assay was developed and validated to quantify Cpd.1A and Cpd.1B RNA from muscle tissues through absolute quantification. Both forward primer (5′ […] 3′; SEQ ID NO: 14) and reverse primer (5′ […] 3′; SEQ ID NO: 15) along with labelled probe with quencher (5′ FAM-CTGCTGCCGTAGCCTG-MGB-Q500 3′; SEQ ID NO: 16) were designed to be specifically bind to Cpd.1A and Cpd.1B RNA and ordered (www.microsynth.com). […] The Cpd.1A RNA copy numbers in TA muscles were assessed by calculating unknown values from standard curves. From qPCR data, half-life was calculated using a monoexponential decay function. […] After 24 and 72 hours, tissues were harvested, and Cpd.1B content was analysed by qPCR as specified above where standard curve template generated from Cpd.1B mRNA.

IGF1 protein = IGF1 protein expression in rat TA muscle after i.m. injection of Cpd.1A (human-specific IGF1 ELISA); format: in vivo; settings: 3 and 10 μg doses i.m., after a delay of several hours
Procedure: as §1

Row | Molecule | area under curve (AUC) of urinary bladder leak point pressure [1] | time course of leak point pressure (LPP) [1] | leak point pressure (LPP) of urinary bladder ([1]; Day 4 after VD, vs. VD vehicle) | leak point pressure (LPP) of urinary bladder ([1]; Day 14 after VD) | endomysial tissue histology score [2] | inner longitudinal muscle layer (ILML) histology score [2] | outer circular muscle layer (OCML) histology score [2] | endomysial tissue histology score ([2]; listed as duloxetine) | inner longitudinal muscle layer (ILML) histology score ([2]; listed as duloxetine) | outer circular muscle layer (OCML) histology score ([2]; listed as duloxetine) | duration of relevant Cpd.1A exposure in TA muscle [3] | half-life of Cpd.1A in TA muscle ([3]; im, 3 ug) | duration of IGF1 protein production at relevant concentrations in TA muscle (IGF1 protein) | leak point pressure (LPP) of urinary bladder ([1]; Day 9 after VD)
1 | CNCC[C@H](Oc1cccc2ccccc12)c1cccs1 [Duloxetine, reference compound] | clear increase in AUC; also recorded: beneficial efficacy | initial increase in LPP that declined thereafter to normal levels on Day 14 | initial increase of LPP; also recorded: significant increase of LPP; also recorded: increased LPP | control levels | further worsened this pathology | further increased the ILML score | further deteriorated the OCML pathology | worsens the endomysium score | worsens the ILML score | tends to worsen the OCML disorganization | – | – | – | –
2 | B1 | – | – | – | – | – | – | – | – | – | – | up to 72 hours | 21 h | up to 72 hours | –
3 | B2 | clear increase in AUC; also recorded: beneficial efficacy | increase of LPP over time that returned to normal levels by Day 14 | significant increase in LPP; also recorded: significant increase of LPP; also recorded: increased LPP | full recovery to healthy LPP levels | completely prevented this impairment; also recorded: reverted | preventing this disruption; also recorded: reverted | prevented this trend; also recorded: reverted | – | – | – | – | – | – | further increased; also recorded: did not reach significance; also recorded: still showed increased LPP
